Test results taken from doi:10.1101/2021.12.24.474084 (bioRxiv, 2021).

Target: SARS-CoV-2 wild-type receptor binding domain (RBD) (ACROBiosystems, Cat No. SPD-C52H3) (SARS-CoV-2 wild-type (MN908947), UniProt P0DTC2)
Experiment: BLI

B1: XGv265 monoclonal antibody (antibody, V domains shown)
VH: QITLKESGPTLVKPTQTLTLTCNFSGFSLNTYGVGVGWIRQPPGKALEWLALIYWDGDERYGPFFKNKVTIAKDTSKNQVVLTMTNMDPVDTATYYCARHLIPTIFDYWGQGTLVTVSS
VL: ALTQPASVSGSPGQSITISCTGTSSDVGGSNYVSWYQHHPDRAPKLLIYEVTNRPSGVSNRFSGSKSANTASLTISGLQAEDEADYYCSSYTTTSTHILFGGGTKLTV
binding result: binds

B2: XGv282 monoclonal antibody (antibody, V domains shown)
VH: VQLVQSGAEVKKPGSSVKVSCKASGDTFSSYTFSWVRQAPGQGLEWMGRSIPIVGKAIYAQEFQGRVTISADRSTTTVYMELSSLRSDDTAVYYCARDQSGFDFFYYDHWGQGTLVAV
VL: QSVLTQPPSASGTPGQRVTISCSGSGSNIGSNTINWYQQLPGTAPKVLIYRNNERPSGVPDRFSGSKSGTSASLTISGLQSEDEAYYHCAAWDDSLNGPVFGGGTKLTVL
binding result: binds

B3: XGv347 monoclonal antibody (antibody, V domains shown)
VH: QMQLVQSGPEVKKPGTSVKVSCKASGFTFTDVSSLQWVRQARGQRLEWIGWTVVGTGNTNYAPRFQERVTITTDKSTSTAYMELSSLRSEDTAVYYCAAPFCSETSCSDGFDLWGQGTKVTVS
VL: EIVLTQSPGTLSLSPGDRATLSCRASQSVRISYLAWYQQKPGQAPRLLISGSSSRATGIPDRFSASGSGTDFTLTISRLEPEDFAVYYCQQYANSPWTFGQGTKVEV
binding result: binds

B4: XGv289 monoclonal antibody (antibody, V domains shown)
VH: QVQLVQSGAEVKKPGASLKVSCRASGYTFTSHFIHWVRQAPGQGLEWMGIINPSGGASYAQNFRDRVTMTTDPSTSTVYMELGSLRSEDTAVYYCARAEGSSWLGWFDPWGQGTLVTVSS
VL: SVLTQPPSASGTPGQRVTIPCSGSSSNIGNNYVYWYQQLPGTAPKLLVYGNNQRPSGVPDRFSVSKSGTSASLAISGLRSEDEADYYCAAWDDGLSGSGWVFGGGTKLTVL
binding result: binds
